Molecular target: ALMS1 (Alstrom syndrome protein 1) (human) (UniProt Q8TCU4)
Assay: cell-based or functional assay

Chain of UniProt Q8TCU4 (Q8TCU4 other isoform, or with tags, fused parts or gaps limits assumed): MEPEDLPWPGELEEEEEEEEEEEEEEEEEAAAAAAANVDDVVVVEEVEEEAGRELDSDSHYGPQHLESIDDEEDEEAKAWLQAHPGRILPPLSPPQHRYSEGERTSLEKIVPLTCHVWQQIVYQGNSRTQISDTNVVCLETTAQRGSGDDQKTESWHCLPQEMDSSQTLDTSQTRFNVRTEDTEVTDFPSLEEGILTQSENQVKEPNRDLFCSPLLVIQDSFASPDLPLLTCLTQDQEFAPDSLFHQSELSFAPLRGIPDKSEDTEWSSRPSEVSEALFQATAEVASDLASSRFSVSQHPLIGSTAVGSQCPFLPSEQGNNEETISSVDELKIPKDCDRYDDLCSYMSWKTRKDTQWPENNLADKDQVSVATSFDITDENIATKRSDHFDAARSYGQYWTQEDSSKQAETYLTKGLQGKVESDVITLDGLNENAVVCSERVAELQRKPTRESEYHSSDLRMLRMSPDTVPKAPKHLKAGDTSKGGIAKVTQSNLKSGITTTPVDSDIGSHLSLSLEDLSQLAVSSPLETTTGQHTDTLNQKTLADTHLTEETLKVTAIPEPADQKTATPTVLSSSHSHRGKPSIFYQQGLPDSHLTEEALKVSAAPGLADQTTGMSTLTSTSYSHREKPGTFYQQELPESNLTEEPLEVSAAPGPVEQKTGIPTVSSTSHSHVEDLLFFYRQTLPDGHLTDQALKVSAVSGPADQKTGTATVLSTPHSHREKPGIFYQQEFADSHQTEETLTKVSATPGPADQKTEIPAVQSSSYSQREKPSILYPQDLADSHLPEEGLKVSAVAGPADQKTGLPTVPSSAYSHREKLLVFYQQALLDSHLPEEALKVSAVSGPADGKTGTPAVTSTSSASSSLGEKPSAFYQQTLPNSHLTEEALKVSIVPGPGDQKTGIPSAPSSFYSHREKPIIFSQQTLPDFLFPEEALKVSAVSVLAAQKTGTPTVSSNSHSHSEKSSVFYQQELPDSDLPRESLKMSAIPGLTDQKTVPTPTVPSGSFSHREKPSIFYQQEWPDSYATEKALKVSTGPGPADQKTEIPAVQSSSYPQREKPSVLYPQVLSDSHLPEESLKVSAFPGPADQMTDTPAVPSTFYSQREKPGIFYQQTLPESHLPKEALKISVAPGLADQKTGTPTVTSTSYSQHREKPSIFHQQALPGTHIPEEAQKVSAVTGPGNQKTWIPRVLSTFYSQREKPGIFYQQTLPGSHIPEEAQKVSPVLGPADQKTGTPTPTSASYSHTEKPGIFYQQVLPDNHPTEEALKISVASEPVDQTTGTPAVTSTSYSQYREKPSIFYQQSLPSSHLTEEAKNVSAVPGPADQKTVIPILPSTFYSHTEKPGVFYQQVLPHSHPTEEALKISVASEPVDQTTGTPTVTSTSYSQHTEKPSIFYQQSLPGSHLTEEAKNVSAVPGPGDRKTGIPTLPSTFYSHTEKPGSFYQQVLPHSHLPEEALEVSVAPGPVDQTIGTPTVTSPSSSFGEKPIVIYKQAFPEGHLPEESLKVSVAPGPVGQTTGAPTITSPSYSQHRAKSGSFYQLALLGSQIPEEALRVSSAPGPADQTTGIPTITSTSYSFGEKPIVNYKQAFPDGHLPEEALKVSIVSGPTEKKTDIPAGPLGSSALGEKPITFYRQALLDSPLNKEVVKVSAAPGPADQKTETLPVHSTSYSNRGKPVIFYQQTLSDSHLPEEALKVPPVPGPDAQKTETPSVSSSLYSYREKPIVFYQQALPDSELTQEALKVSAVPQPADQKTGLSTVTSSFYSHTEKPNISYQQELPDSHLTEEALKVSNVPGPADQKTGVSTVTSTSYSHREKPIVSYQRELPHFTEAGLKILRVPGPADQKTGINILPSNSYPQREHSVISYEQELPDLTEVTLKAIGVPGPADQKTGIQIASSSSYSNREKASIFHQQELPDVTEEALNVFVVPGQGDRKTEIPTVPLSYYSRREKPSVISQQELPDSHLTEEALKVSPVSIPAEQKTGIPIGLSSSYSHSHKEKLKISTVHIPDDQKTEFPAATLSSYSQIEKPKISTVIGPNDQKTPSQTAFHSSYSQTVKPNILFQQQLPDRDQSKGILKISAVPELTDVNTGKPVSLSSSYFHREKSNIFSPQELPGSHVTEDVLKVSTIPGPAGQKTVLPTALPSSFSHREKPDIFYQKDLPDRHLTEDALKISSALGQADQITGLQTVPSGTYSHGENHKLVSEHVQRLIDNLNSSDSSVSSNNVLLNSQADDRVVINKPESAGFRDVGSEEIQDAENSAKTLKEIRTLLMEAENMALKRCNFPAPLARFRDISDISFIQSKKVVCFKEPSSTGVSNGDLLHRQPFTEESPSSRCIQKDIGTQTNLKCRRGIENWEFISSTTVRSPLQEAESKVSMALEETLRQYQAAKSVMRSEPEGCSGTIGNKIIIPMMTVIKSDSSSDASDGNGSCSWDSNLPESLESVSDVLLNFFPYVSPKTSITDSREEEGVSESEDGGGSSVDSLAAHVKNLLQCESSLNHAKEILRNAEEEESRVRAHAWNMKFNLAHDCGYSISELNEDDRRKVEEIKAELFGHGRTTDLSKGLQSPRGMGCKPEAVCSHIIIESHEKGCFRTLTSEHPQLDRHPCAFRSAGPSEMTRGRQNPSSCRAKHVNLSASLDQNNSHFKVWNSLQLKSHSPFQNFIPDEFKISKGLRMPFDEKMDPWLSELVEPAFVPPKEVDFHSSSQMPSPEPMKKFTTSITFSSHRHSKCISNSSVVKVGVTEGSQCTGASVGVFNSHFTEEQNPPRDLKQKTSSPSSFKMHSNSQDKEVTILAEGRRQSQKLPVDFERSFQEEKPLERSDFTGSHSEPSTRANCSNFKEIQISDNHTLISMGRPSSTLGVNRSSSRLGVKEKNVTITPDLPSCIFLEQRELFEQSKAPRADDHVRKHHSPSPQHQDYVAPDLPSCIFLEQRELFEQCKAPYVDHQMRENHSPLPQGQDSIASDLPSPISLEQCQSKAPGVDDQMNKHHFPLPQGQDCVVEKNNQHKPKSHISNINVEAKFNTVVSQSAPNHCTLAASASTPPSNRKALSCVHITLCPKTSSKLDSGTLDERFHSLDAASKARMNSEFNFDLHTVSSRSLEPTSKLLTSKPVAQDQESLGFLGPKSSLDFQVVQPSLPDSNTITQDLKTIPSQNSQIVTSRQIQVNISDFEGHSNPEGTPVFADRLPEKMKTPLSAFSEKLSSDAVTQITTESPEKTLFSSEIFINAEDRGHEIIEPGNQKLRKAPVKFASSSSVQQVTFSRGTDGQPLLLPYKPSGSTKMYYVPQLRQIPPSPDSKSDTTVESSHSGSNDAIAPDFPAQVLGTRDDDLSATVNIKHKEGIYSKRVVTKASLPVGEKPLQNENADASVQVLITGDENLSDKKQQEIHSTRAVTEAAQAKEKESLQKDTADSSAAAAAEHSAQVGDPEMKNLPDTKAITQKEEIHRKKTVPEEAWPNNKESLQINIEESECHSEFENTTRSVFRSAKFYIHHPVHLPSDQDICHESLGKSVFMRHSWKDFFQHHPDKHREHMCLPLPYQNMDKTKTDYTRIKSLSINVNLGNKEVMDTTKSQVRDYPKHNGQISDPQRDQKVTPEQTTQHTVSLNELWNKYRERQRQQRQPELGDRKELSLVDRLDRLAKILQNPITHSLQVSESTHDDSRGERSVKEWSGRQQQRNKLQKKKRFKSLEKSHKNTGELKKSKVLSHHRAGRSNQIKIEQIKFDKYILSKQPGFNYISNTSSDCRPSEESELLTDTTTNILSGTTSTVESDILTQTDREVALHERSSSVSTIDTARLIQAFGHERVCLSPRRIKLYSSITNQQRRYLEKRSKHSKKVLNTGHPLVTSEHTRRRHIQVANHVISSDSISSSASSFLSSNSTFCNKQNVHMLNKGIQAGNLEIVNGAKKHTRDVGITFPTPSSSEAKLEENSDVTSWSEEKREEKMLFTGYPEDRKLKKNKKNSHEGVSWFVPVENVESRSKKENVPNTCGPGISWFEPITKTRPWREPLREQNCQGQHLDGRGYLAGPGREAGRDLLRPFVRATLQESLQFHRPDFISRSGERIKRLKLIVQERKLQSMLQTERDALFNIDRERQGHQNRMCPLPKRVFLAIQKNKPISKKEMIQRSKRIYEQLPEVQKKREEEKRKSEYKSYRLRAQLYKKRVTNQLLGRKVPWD

Substance: min-αPKC-FLAG (ALMS1-interacting domain of human PKCα with N-terminal FLAG tag) (from UniProt P05696 336-672)
- 2-NBDG absorption in mature adipocytes in absence of INS (times (vs control)): 3.5

Reference: patent publication US20170000857A1
